Measurements as given in IntAct's records for PubMed 24705553.

B1: Autophagy-related protein 19 (Saccharomyces cerevisiae), P35193 (parent)
chain: MNNSKTNQQMNTSMGYPLTVYDECNKFQLIVPTLDANIMLWCIGQLSLLNDSNGCKHLFWQPNDKSNVRILLNNYDYGHLFKYLQCQRKCSVYIGEGTLKKYNLTISTSFDNFLDLTPSEEKESLCREDAHEDPVSPKAGSEEEISPNSTSNVVVSRECLDNFMKQLLKLEESLNKLELEQKVTNKEPNHRISGTIDIPEDRSELVNFFTELKTVKQLEDVFQRYHDYERLSQECDSKTEIASDHSKKETKIEVEPPNERSLQITMNQRDNSLYFQLFNNTNSVLAGNCKLKFTDAGDKPTTQIIDMGPHEIGIKEYKEYRYFPYALDLEAGSTIEIENQYGEVIFLGKYGSSPMINLRPPSRLSAESLQASQEPFYSFQIDTLPELDDSSIISTSISLSYDGDDNEKALTWEEL
partner: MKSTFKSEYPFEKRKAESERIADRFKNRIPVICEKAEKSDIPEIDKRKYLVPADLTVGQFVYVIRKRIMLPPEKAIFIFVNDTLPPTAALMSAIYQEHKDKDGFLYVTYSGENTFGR
B2: Autophagy-related protein 34 (Saccharomyces cerevisiae), Q12292 (parent)
chain: MKIAVETTLFDFFVIDQFKKSTFSAPNTKVDTIKGCINKFIEQFNVYDEQHIFWQPPGKSNVRLLSNANDFGQLGNFLHKKIKCNIFIGEEALRKYDLNICGPYDKFVENSDPSVKKVVNRDDVMLSRKCLNIISEQLSILEKSISKAQNQVLQSSEVEGKKCIILPEDKPELIKFFSKFETSVQLQEVYEGYKVYEKLLQKFGGQKKRMESFLNENTPMSGAEAIKQINISEELKEKGERLTTPNDPLLHVEVSNEDNSLHFILYNKTNIIIPGNCTFEFSSQISEVFSIKMGPHEIGIKGQKELWFFPSLPTPLSNYTMKVVNQDGETILVGKCADSNEITLKSPLASFSTGSFQTGSFHTLQDPTNVFRADALSSPDESSIMSTPFLGETDEVYNSGSTLSRPFTWEEI
partner: B1 partner

Variants of: B1
Settings: with atg8_yeast ATG8, P38182

Variant | effect of a mutation on the interaction
MNNSKTNQQMNTSMGYPLTVYDECNKFQLIVPTLDANIMLWCIGQLSLLNDSNGCKHLFWQPNDKSNVRILLNNYDYGHLFKYLQCQRKCSVYIGEGTLKKYNLTISTSFDNFLDLTPSEEKESLCREDAHEDPVSPKAGSEEEISPNSTSNVVVSRECLDNFMKQLLKLEESLNKLELEQKVTNKEPNHRISGTIDIPEDRSELVNFFTELKTVKQLEDVFQRYHDYERLSQECDSKTEIASDHSKKETKIEVEPPNERSLQITMNQRDNSLYFQLFNNTNSVLAGNCKLKFTDAGDKPTTQIIDMGPHEIGIKEYKEYRYFPYALDLEAGSTIEIENQYGEVIFLGKYGSSPMINLRPPSRLSAESLQASQEPFYSFQIDTLPELDDSSIISTSISLSYDGDDNEKALTAEEL [W412A] | decreasing interaction strength

Variants of: B1
Settings: with atg8_yeast ATG8, P38182
Remark: another data set of the same source

Variant | effect of a mutation on the interaction
MNNSKTNQQMNTSMGYPLTVYDECNKFQLIVPTLDANIMLWCIGQLSLLNDSNGCKHLFWQPNDKSNVRILLNNYDYGHLFKYLQCQRKCSVYIGEGTLKKYNLTISTSFDNFLDLTPSEEKESLCREDAHEDPVSPKAGSEEEISPNSTSNVVVSRECLDNFMKQLLKLEESLNKLELEQKVTNKEPNHRISGTIDIPEDRSELVNFFTELKTVKQLEDVFQRYHDYERLSQECDSKTEIASDHSKKETKIEVEPPNERSLQITMNQRDNSLYFQLFNNTNSVLAGNCKLKFTDAGDKPTTQIIDMGPHEIGIKEYKEYRYFPYALDLEAGSTIEIENQYGEVIFLGKYGSSPMINLRPPSRLSAESLQASQEPAYSAQIDTLPELDDSSIISTSISLSYDGDDNEKALTWEEL [F376A;F379A] | decreasing interaction strength
MNNSKTNQQMNTSMGYPLTVYDECNKFQLIVPTLDANIMLWCIGQLSLLNDSNGCKHLFWQPNDKSNVRILLNNYDYGHLFKYLQCQRKCSVYIGEGTLKKYNLTISTSFDNFLDLTPSEEKESLCREDAHEDPVSPKAGSEEEISPNSTSNVVVSRECLDNFMKQLLKLEESLNKLELEQKVTNKEPNHRISGTIDIPEDRSELVNFFTELKTVKQLEDVFQRYHDYERLSQECDSKTEIASDHSKKETKIEVEPPNERSLQITMNQRDNSLYFQLFNNTNSVLAGNCKLKFTDAGDKPTTQIIDMGPHEIGIKEYKEYRYFPYALDLEAGSTIEIENQYGEVIFLGKYGSSPMINLRPPSRLSAESLQASQEPAYSAQIDTLAALDDSSIISTSISLSYDGDDNEKALTAEEL [F376A;F379A;P385A;E386A;W412A] | decreasing interaction strength
MNNSKTNQQMNTSMGYPLTVYDECNKFQLIVPTLDANIMLWCIGQLSLLNDSNGCKHLFWQPNDKSNVRILLNNYDYGHLFKYLQCQRKCSVYIGEGTLKKYNLTISTSFDNFLDLTPSEEKESLCREDAHEDPVSPKAGSEEEISPNSTSNVVVSRECLDNFMKQLLKLEESLNKLELEQKVTNKEPNHRISGTIDIPEDRSELVNFFTELKTVKQLEDVFQRYHDYERLSQECDSKTEIASDHSKKETKIEVEPPNERSLQITMNQRDNSLYFQLFNNTNSVLAGNCKLKFTDAGDKPTTQIIDMGPHEIGIKEYKEYRYFPYALDLEAGSTIEIENQYGEVIFLGKYGSSPMINLRPPSRLSAESLQASQEPAYSAQIDTLPELDDSSIISTSISLSYDGDDNEKALTAEEL [F376A;F379A;W412A] | decreasing interaction strength

Variants of: B1
Settings: with atg8_yeast ATG8, P38182
Remark: another data set of the same source

Variant | effect of a mutation on the interaction
MNNSKTNQQMNTSMGYPLTVYDECNKFQLIVPTLDANIMLWCIGQLSLLNDSNGCKHLFWQPNDKSNVRILLNNYDYGHLFKYLQCQRKCSVYIGEGTLKKYNLTISTSFDNFLDLTPSEEKESLCREDAHEDPVSPKAGSEEEISPNSTSNVVVSRECLDNFMKQLLKLEESLNKLELEQKVTNKEPNHRISGTIDIPEDRSELVNFFTELKTVKQLEDVFQRYHDYERLSQECDSKTEIASDHSKKETKIEVEPPNERSLQITMNQRDNSLYFQLFNNTNSVLAGNCKLKFTDAGDKPTTQIIDMGPHEIGIKEYKEYRYFPYALDLEAGSTIEIENQYGEVIFLGKYGSSPMINLRPPSRLSAESLQASQEPAYSAQIDTLAALDDSSIISTSISLSYDGDDNEKALTAEEL [F376A;F379A;P385A;E386A;W412A] | disrupting interaction strength
MNNSKTNQQMNTSMGYPLTVYDECNKFQLIVPTLDANIMLWCIGQLSLLNDSNGCKHLFWQPNDKSNVRILLNNYDYGHLFKYLQCQRKCSVYIGEGTLKKYNLTISTSFDNFLDLTPSEEKESLCREDAHEDPVSPKAGSEEEISPNSTSNVVVSRECLDNFMKQLLKLEESLNKLELEQKVTNKEPNHRISGTIDIPEDRSELVNFFTELKTVKQLEDVFQRYHDYERLSQECDSKTEIASDHSKKETKIEVEPPNERSLQITMNQRDNSLYFQLFNNTNSVLAGNCKLKFTDAGDKPTTQIIDMGPHEIGIKEYKEYRYFPYALDLEAGSTIEIENQYGEVIFLGKYGSSPMINLRPPSRLSAESLQASQEPFYSAQIDTLPELDDSSIISTSISLSYDGDDNEKALTAEEL [F379A;W412A] | decreasing interaction strength
MNNSKTNQQMNTSMGYPLTVYDECNKFQLIVPTLDANIMLWCIGQLSLLNDSNGCKHLFWQPNDKSNVRILLNNYDYGHLFKYLQCQRKCSVYIGEGTLKKYNLTISTSFDNFLDLTPSEEKESLCREDAHEDPVSPKAGSEEEISPNSTSNVVVSRECLDNFMKQLLKLEESLNKLELEQKVTNKEPNHRISGTIDIPEDRSELVNFFTELKTVKQLEDVFQRYHDYERLSQECDSKTEIASDHSKKETKIEVEPPNERSLQITMNQRDNSLYFQLFNNTNSVLAGNCKLKFTDAGDKPTTQIIDMGPHEIGIKEYKEYRYFPYALDLEAGSTIEIENQYGEVIFLGKYGSSPMINLRPPSRLSAESLQASQEPFYSFQIDTLAALDDSSIISTSISLSYDGDDNEKALTAEEL [P385A;E386A;W412A] | decreasing interaction strength

Variants of: B1
Settings: with atg8_yeast ATG8, P38182
Remark: another data set of the same source

Variant | effect of a mutation on the interaction
MNNSKTNQQMNTSMGYPLTVYDECNKFQLIVPTLDANIMLWCIGQLSLLNDSNGCKHLFWQPNDKSNVRILLNNYDYGHLFKYLQCQRKCSVYIGEGTLKKYNLTISTSFDNFLDLTPSEEKESLCREDAHEDPVSPKAGSEEEISPNSTSNVVVSRECLDNFMKQLLKLEESLNKLELEQKVTNKEPNHRISGTIDIPEDRSELVNFFTELKTVKQLEDVFQRYHDYERLSQECDSKTEIASDHSKKETKIEVEPPNERSLQITMNQRDNSLYFQLFNNTNSVLAGNCKLKFTDAGDKPTTQIIDMGPHEIGIKEYKEYRYFPYALDLEAGSTIEIENQYGEVIFLGKYGSSPMINLRPPSRLSAESLQASQEPAYSAQIDTLPELDDSSIISTSISLSYDGDDNEKALTAEEL [F376A;F379A;W412A] | disrupting interaction strength

Variants of: B2
Settings: with atg8_yeast ATG8, P38182

Variant | effect of a mutation on the interaction
MKIAVETTLFDFFVIDQFKKSTFSAPNTKVDTIKGCINKFIEQFNVYDEQHIFWQPPGKSNVRLLSNANDFGQLGNFLHKKIKCNIFIGEEALRKYDLNICGPYDKFVENSDPSVKKVVNRDDVMLSRKCLNIISEQLSILEKSISKAQNQVLQSSEVEGKKCIILPEDKPELIKFFSKFETSVQLQEVYEGYKVYEKLLQKFGGQKKRMESFLNENTPMSGAEAIKQINISEELKEKGERLTTPNDPLLHVEVSNEDNSLHFILYNKTNIIIPGNCTFEFSSQISEVFSIKMGPHEIGIKGQKELWFFPSLPTPLSNYTMKVVNQDGETILVGKCADSNEITLKSPLASFSTGSFQTGSFHTLQDPTNVFRADALSSPDESSIMSTPFLGETDEVYNSGSTLSRPFTAEEI [W409A] | disrupting interaction strength
